{"source": "patent US12404346B2", "about": "“Anti-naloxone and anti-naltrexone monoclonal antibodies and methods of production and use thereof” (Siemens Healthcare Diagnostics Inc., priority 2019, dated 2025)", "molecules": {"B1": {"name": "179B 9G1.1: anti-naloxone monoclonal antibody generated using naloxone-3-Val-mcKLH; heavy chain SEQ ID NO:161, light chain SEQ ID NO:165 (antibody)", "heavy": "MEWPCIFLFLLSVTEGVHSQVQLQQSGPELVKPGASVMISCKVFGDIFSSSWMNWVKQRPGKGLEWIGWICPGNGATKYNGKFKGKATLTADKSSGTGYMQLSSLTSEDSAVYFCELGRRDGYLDVWAGTTVTVSS", "light": "MESQTQVFVYMLLWLSGVDGDIVMTQSQKFIFTSEGDRVSVTCKASQNVGTNIAWYQQKPGQSPKALIYSASNRYSGVPDRFTGSGSGTDFTLTFSNVQSEDLAEYFCLQYNNYPWTFGGGTKLEIK", "modifications": "Amino acid sequence of heavy chain of monoclonal antibody 179B 9G1.1; Amino acid sequence of light chain of monoclonal antibody 179B 9G1.1"}, "B2": {"name": "179B 9E12: anti-naloxone monoclonal antibody generated using naloxone-3-Val-mcKLH; heavy chain SEQ ID NO:181, light chain SEQ ID NO:185 (antibody, V domains shown)", "VH": "MGWSWIFLFLLSGTAGVHCQIQLQQSGPELVKPGASVKISCKASDYSFTNSYINWVKQRPGQGLEWIGWIYPGSTNTKYNEKFWDKATLTVDTSSNTAYMELRGLTSEDSAVYFCEMGTHYSYDVMDWGQGTSVTVSS", "VL": "MEFQTQVFVFVLLWLSGVDGDIVMTPSQKFMSTSVGDRVSITCKASQNVRTSVGWYQQKPGQSPKPLIYATSNRHTGVPDRFTGSGSGTDFSLTITNVQSEDQADYFCLQHWNYPWTFGGGTKLEIK", "modifications": "Amino acid sequence of heavy chain of monoclonal antibody 179B 9E12; Amino acid sequence of light chain of monoclonal antibody 179B 9E12"}, "B3": {"name": "180B 13F7: anti-naltrexone monoclonal antibody generated using naltrexone-3-Val-mcKLH; heavy chain SEQ ID NO:41, light chain SEQ ID NO:45 (antibody)", "heavy": "MRVLILVYLLTALPGILSDIQLQESGPGLVKPSQTVSLTCTVTGYSITYVNHWWNWIRQVSGNKLEWIGYISSSGSIDSNPSLKSRIAITRDTSKNQLFLQLKSVTTEDVGTYYCVSEDSSGYHYWGGTTLTVSS", "light": "MKLPVRLLVLMFWIPASSSDVVMTQTPLSLPVSLGDQASISCRSSQSLVFSNGKTYFHWYLQKPGQSPKLLIYRVSNRFSGVPDRFSGSGSGTDFTLKISRVEAEDLGVYFCSQSTHVPWTFGGGTKLEIK", "modifications": "Amino Acid sequence of heavy chain of monoclonal antibody 180B 13F7; Amino Acid sequence of light chain of monoclonal antibody 180B 13F7"}, "B4": {"name": "180C 9G8: anti-naltrexone monoclonal antibody generated using naltrexone-3-Val-mcKLH; heavy chain SEQ ID NO:141, light chain SEQ ID NO:145 (antibody, V domains shown)", "VH": "MYLGLNCVIIVFLLKGVQSEVKLEESGGGLVQPGGSMKLSCAASGFTFSDAWMDWVRQSPEKGLEWVAEIRNKANNHATYYAESVKGRFTISRDDSNSRMFLQMDSLRAEDTGIYYCIGGIPRYFDVGAGTTVTVSS", "VL": "MESQTQVFVYMLLWLSGVDGDIVMTQSQKFMSTSVGDRVSITCKASQNVRTYVAWYQQKPGQSPKALLYSASYRYSGVPDRFIGSGSGTQFTLTISDVQSEDLAEYFCHQYNSYPLTFGGGTKLEIQ", "modifications": "Amino acid sequence of heavy chain of monoclonal antibody 180C 9G8; Amino acid sequence of light chain of monoclonal antibody 180C 9G8"}, "B5": {"name": "180C 9D5: anti-naltrexone monoclonal antibody generated using naltrexone-3-Val-mcKLH; heavy chain SEQ ID NO:121, light chain SEQ ID NO:125 (antibody)", "heavy": "MGWNYIFLFLIATVTDVHSQVRLQQPGTDLVKPGASVKLSCRASGFTFTNYWMNWVKQRPGQGLEWIGEINTNGGTKYNENFKNKATLTVDQSSSTAYIQLSGLTSEDSAVYFCNYFDGNYDYWGQGTLTVSS", "light": "MEFHTQVFVFVFLWLSGVDGDIVMTQSQKFMSTPVGDRVSLTCRASQNVGTAVAWYQQKPGQPPKLLIYSTSNRFTGVPSRFTGSGSGTDFTLTITNMQSEDLADYFCHQYSSYPYTFGGGTKLEIK", "modifications": "Amino acid sequence for heavy chain of monoclonal antibody 180C 9D5; Amino acid sequence for light chain of monoclonal antibody 180C 9D5"}, "B6": {"name": "180C 1F8: anti-naltrexone monoclonal antibody generated using naltrexone-3-Val-mcKLH; heavy chain SEQ ID NO:61, light chain SEQ ID NO:65 (antibody)", "heavy": "MEWSWIFLFFLSVTTGVHSQVQLQQSDAELVKPGTSVKISCKASGFTFTDHAIHWVKQRPEQGLEWIGYISPGNGDIKYNEKFKGKATLTADKSSSTAYMQLNSLTSEDSAVYFCDYYNGRVDYWGQTTLTVSS", "light": "MEFHTQVFVFVFLWLSGVDGDIVMTQSQKFMTTSVGDRVSITCKASQNVGSAVAWYQQKPGQSPKLLIYSASNRFTGVPDRFTGSGSRTDFTLTISNMQSDDLADYFCHQYRSYPYTFGGGTKLEIK", "modifications": "Amino Acid sequence of heavy chain of monoclonal antibody 180C 1F8; Amino Acid sequence of light chain of monoclonal antibody 180C 1F8"}, "B7": {"name": "180C 7G8: anti-naltrexone monoclonal antibody generated using naltrexone-3-Val-mcKLH; heavy chain SEQ ID NO:81, light chain SEQ ID NO:85 (antibody, V domains shown)", "VH": "MYLGLNCVIIVFLLKGVQSEVKLEESGGGLVQPGGSVKLSCAVFGFTFSDPWMDWVRQSPEKGLEWVAEIRNKAYNHATYYAESVKGRFTISRDDSNSRVSLQMNNLRAEDTGVYYCTAGDSSHSYWQGTLVTVSA", "VL": "MEFQTQVFVFVLLWLSGVDGDIVMTQSQKFMSTSVGDRVSIICKASQNVRTAVAWYQQKPGQSPKTLIYLASNRHTGVPDRFTGSGSGTDFTLTISNVQAEDLADYFCLQHWNYPLTFGGGTKLEIK", "modifications": "Amino acid sequence of heavy chain of monoclonal antibody 180C 7G8; Amino acid sequence of light chain of monoclonal antibody 180C 7G8"}, "B8": {"name": "180C 8A10: anti-naltrexone monoclonal antibody generated using naltrexone-3-Val-mcKLH; heavy chain SEQ ID NO:101, light chain SEQ ID NO:105 (antibody)", "heavy": "MGWSYIFLFLVATVTDVHSQVQLQQPGAELVKPGASVKLSCKASGYTFTNYWINWVKQRPGQGLEWLGEINPSNSNTKYNEKFKSRATLTADKSSSTAYMQLHSLTSEDSAVYYCNYYDGGHDSWGQTTLTVSS", "light": "MEFHTQVFVFVFLWLSGVDGDIVMTQSQKFMSTTLGDRVSIICKASQNVGTAVAWYQQKPGQSPKLLIYSTSNRYTGVPDRFTGSGSGTDFSLTISSVQSEDLADYFCHQYSSYLYTFGGGTRLEIK", "modifications": "Amino acid sequence of heavy chain of monoclonal antibody 180C 8A10; Amino acid sequence of light chain of monoclonal antibody 180C 8A10"}}, "data": [{"experiment": "inhibition ELISA, anti-naloxone monoclonal antibodies against key opioids (FIG. 7)", "format": "binding", "conditions": "free drug 20 μg/mL, plates coated with ovalbumin conjugate", "text": "(§1) Mice with good anti-drug antibody titers and binding to free drug in the ELISA inhibition assays were selected to proceed with generation of monoclonal antibodies, in a similar manner to that described in U.S. Pat. No. 9,815,907 (issued to Sharma et al. on Nov. 14, 2017). In particular, mice with highest titers and best specificity were boosted three days prior to fusion. On the day of fusion, spleen cells were harvested from these mice and were fused with myeloma cell line P3X63Ag8.653 using PEG-assisted fusion protocols. After about ten days, hybridoma supernatants were screened for anti-naloxone and anti-naltrexone antibodies using a plate ELISA (direct binding and inhibition ELISA for specificity). Positive clones were further expanded and sub-cloned, and supernatants were purified using a Protein A SEPHAROSE® (GE Healthcare, Chicago, IL) column. Purified antibody samples were tested using ELISA for binding to the immunogen (i.e., a conjugate of drug-carrier protein) and to free opioids.\n(§2) Antibody solution (Immune mouse bleeds or hybridoma clones supernatant or purified antibody) was screened using an inhibition ELISA procedure according to the following protocol. […] Plate coating was performed for 1 hour or more at room temperature or overnight at about 2° C. to 8° C. The plates were then flicked dry and blocked with 200 μL per well of blocking buffer solution (0.5% Casein solution in PBS containing 0.05% TWEEN® 20 surfactant (Croda International PLC, Snaith, United Kingdom). Plate blocking was performed by incubation for 30 minutes or more at room temperature with plate shaking. The plates were washed using a plate washer (BioTek®, Winooski, VT) with plate stacker with the washing buffer being MILLIQ® water (Millipore Corporation, Billerica, MA) containing 0.05% TWEEN® 20. The monoclonal antibody to be screened was then added to each well along with free drug as follows: 25 μL per well of appropriately diluted culture supernatant (or antibody solution) and added 25 μL of 20 μg/mL of free drug. Incubation was performed for about 1 hour at room temperature with plate shaking. The plate was washed. An enzyme conjugate (goat anti-mouse IgG coupled to HRP diluted in blocking buffer diluted to 1:3000) was added at 50 μL per well. Incubation was performed for about 1 hour at room temperature with shaking. The plate was then washed, and a chromogenic solution (TMB from Moss Substrates, Pasadena MD) was added at a volume of 100 μL per well. If a desired antibody was present in the hybridoma supernatant, then a decrease in optical density was observed compared to the well containing no free drug. The plates were read at 650 nm wavelength using an ELISA plate reader (Molecular Devices, San Jose, CA). Note: appropriate dilution of antibody solution was determined by performing a titration ELISA. The antibody dilution was chosen where around 1.0 optical density was observed.", "values": [{"molecule": "B1", "specificity for naloxone over the other key opioids tested in the inhibition ELISA assay": "good specificity for naloxone"}, {"molecule": "B2", "specificity for naloxone over the other key opioids tested in the inhibition ELISA assay": "good specificity for naloxone"}]}, {"experiment": "inhibition ELISA, anti-naltrexone monoclonal antibodies against key opioids (FIG. 8)", "format": "binding", "conditions": "free drug 20 μg/mL, plates coated with ovalbumin conjugate", "text": "as §1, §2", "values": [{"molecule": "B3", "specificity for naltrexone over the other key opioids tested in the inhibition ELISA assay": "good specificity for naltrexone"}, {"molecule": "B4", "specificity for naltrexone over the other key opioids tested in the inhibition ELISA assay": "good specificity for naltrexone"}, {"molecule": "B5", "specificity for naltrexone over the other key opioids tested in the inhibition ELISA assay": "good specificity for naltrexone"}, {"molecule": "B6", "specificity for naltrexone over the other key opioids tested in the inhibition ELISA assay": "good specificity for naltrexone"}, {"molecule": "B7", "specificity for naltrexone over the other key opioids tested in the inhibition ELISA assay": "good specificity for naltrexone"}, {"molecule": "B8", "specificity for naltrexone over the other key opioids tested in the inhibition ELISA assay": "good specificity for naltrexone"}]}]}
